Data: patent US20170145090A1

Target: Human OSM (in-house, OSMN1-1) (human) (UniProt P13725)
Experiment: cell-based or functional assay

Sequence of Human OSM (in-house, OSMN1-1) (human) (P13725 26-221 limits assumed): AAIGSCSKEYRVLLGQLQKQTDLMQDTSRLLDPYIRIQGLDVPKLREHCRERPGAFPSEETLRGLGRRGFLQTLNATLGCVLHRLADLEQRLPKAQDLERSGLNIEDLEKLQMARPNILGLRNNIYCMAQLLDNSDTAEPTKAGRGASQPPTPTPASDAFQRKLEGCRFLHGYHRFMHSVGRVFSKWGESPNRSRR

MAB295 (R&D Systems) (antibody)
pSTAT3 inhibition EC50 (ng/ml), A375 cells, 5 ng/ml hOSM: 72.1 ng/ml
